The supplement of paper PMC5998384

Assays:
HeLa Kyoto [1] = assay: melting temperature (median over replicates), in situ; higher = more thermally stable
HeLa Kyoto [2] = assay: thermal stability score vs G1/S (z-score of summed log2 fold changes over temperatures); higher = more thermally stable than in G1/S
HeLa Kyoto [3] = assay: solubility change mitosis vs G1/S (difference of NP-40 vs SDS log2 ratios) (log2 ratio difference); higher = more soluble in mitosis
HeLa Kyoto [4] = assay: solubility in G1/S (NP-40 vs SDS abundance) (log2 ratio); higher = more soluble; conditions: cell cycle stage: G1/S
[5] = cell cycle stage: early G1 (4.5 h after nocodazole release)
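For melting temperature (median over replicates), in situ in this document: HeLa Kyoto cells synchronized by double thymidine or nocodazole block, proteins quantified by TMT10plex mass spectrometry, three independent biological replicates.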
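For solubility change mitosis vs G1/S (difference of NP-40 vs SDS log2 ratios) in this document: synchronized HeLa Kyoto cells (double thymidine block for G1/S, nocodazole release for mitosis), protein amounts in NP-40 versus SDS lysates quantified by mass spectrometry, three biological replicates.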
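For solubility in G1/S (NP-40 vs SDS abundance) in this document: HeLa Kyoto cells arrested at G1/S by double thymidine block, proteins quantified by TMT10plex mass spectrometry in mild NP-40 versus SDS extracts, three biological replicates.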
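For thermal stability score vs G1/S (z-score of summed log2 fold changes over temperatures) in this document: synchronized HeLa Kyoto cells, proteins quantified by TMT10plex mass spectrometry, three biological replicates, mitosis taken 0.5 h after nocodazole release, G1/S directly after double thymidine block.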

Chain of C5ORF22 (chain, as listed by the source): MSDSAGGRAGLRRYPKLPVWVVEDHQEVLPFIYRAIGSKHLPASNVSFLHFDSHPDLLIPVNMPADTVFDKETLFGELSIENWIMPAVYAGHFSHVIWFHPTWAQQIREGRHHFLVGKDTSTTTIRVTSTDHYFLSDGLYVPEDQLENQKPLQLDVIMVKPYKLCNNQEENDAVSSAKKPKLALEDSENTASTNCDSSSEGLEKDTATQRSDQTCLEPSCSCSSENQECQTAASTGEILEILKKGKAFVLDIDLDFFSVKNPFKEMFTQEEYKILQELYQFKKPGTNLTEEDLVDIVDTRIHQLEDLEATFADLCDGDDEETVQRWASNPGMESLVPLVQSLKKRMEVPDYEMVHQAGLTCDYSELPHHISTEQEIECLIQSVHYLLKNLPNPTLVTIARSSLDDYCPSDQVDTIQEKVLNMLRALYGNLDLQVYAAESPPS
Chain of CDK13 (chain, as listed by the source): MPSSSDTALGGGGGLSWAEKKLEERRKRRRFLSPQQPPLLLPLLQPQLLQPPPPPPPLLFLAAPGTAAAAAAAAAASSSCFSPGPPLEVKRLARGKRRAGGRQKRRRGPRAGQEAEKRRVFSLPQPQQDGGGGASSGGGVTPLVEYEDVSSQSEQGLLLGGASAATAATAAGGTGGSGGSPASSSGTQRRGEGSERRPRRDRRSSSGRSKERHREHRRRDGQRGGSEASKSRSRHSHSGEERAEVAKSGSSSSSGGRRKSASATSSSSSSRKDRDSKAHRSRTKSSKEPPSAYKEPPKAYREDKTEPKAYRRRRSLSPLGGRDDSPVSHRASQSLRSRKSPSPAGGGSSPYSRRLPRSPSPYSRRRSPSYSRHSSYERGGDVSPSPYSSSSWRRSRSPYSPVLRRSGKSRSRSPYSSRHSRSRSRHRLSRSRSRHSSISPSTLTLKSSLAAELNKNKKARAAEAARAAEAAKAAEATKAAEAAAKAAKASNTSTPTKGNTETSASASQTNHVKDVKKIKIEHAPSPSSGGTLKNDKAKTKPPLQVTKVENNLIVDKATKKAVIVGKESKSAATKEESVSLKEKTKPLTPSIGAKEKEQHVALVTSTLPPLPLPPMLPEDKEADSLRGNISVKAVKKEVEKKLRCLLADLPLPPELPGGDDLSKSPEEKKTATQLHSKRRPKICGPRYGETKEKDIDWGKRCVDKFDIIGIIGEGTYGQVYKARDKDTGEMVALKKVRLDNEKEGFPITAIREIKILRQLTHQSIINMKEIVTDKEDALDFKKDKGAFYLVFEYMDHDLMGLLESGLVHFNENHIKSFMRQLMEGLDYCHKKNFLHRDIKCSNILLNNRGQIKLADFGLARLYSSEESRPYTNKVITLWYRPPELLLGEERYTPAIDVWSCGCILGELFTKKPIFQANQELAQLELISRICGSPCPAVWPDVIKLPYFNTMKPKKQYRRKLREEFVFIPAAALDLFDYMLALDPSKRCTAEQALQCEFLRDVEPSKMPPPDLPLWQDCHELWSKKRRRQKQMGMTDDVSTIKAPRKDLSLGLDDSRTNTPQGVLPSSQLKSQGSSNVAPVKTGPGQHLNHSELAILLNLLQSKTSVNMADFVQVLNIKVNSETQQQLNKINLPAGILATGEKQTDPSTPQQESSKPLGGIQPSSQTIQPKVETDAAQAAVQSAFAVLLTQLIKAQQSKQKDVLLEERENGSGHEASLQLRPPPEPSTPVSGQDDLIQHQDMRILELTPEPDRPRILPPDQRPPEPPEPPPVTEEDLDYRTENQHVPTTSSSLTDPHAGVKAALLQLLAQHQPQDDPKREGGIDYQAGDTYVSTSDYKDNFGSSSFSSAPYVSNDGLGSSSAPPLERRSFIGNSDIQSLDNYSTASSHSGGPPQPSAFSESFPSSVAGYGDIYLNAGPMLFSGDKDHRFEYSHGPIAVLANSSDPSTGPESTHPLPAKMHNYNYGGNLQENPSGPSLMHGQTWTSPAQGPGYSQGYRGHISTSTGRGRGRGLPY
Chain of CASKIN2 (chain, as listed by the source): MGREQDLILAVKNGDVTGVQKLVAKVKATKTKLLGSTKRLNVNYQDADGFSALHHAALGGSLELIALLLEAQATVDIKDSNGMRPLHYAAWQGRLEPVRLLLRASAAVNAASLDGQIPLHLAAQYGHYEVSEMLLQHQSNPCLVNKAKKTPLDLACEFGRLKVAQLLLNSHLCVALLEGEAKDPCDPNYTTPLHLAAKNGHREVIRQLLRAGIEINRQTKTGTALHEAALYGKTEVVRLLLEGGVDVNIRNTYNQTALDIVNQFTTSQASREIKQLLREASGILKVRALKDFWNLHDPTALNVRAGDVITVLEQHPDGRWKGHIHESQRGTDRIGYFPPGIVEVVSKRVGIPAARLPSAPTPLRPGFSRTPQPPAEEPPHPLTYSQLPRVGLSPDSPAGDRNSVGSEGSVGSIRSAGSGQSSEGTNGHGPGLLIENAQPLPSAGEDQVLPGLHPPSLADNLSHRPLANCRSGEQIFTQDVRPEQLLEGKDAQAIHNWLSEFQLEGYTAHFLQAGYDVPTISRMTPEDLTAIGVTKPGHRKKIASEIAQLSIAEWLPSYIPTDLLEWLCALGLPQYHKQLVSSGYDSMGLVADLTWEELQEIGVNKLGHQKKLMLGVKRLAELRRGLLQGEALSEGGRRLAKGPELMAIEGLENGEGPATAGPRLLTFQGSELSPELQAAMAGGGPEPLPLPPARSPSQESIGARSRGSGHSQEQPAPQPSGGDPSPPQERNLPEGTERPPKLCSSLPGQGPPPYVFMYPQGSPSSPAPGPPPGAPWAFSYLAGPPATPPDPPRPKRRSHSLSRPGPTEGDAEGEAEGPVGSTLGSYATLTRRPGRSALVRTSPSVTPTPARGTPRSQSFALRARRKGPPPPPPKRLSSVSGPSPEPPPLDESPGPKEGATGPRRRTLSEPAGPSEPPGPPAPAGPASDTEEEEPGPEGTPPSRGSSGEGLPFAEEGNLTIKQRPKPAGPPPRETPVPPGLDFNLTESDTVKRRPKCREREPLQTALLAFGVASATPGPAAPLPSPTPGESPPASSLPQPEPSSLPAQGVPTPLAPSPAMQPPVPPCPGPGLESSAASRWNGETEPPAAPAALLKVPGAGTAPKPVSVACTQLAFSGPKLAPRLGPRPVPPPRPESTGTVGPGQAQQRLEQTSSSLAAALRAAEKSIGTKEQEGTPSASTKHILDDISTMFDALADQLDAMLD
Chain of CIAO1 (chain, as listed by the source): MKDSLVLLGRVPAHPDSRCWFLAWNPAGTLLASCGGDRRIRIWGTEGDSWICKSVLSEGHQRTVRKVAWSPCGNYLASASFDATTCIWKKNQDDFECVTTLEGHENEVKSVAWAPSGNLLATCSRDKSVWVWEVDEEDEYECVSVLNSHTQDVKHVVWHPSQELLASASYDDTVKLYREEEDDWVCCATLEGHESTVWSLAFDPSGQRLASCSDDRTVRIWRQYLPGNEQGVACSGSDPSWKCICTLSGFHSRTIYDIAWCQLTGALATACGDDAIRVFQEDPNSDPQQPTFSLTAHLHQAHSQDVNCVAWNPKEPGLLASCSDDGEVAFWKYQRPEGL
Chain of BAG3 (chain, as listed by the source): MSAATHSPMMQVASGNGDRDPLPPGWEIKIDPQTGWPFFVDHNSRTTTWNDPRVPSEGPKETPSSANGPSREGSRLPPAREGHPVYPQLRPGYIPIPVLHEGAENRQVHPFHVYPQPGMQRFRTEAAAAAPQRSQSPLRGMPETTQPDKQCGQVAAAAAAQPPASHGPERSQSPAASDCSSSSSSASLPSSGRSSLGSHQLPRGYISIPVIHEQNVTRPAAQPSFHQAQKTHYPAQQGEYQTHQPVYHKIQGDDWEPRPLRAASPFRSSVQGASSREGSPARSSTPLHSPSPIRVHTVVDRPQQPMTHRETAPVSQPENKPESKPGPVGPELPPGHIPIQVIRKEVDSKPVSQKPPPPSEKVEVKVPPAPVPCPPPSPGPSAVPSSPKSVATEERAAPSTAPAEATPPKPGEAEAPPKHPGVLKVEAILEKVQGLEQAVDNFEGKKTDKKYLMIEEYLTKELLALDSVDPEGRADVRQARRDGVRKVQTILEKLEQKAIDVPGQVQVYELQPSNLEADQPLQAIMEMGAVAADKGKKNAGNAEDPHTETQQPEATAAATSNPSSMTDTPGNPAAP

Substance | melting temperature (HeLa Kyoto [1]; cell cycle stage: G1/S) [°C] | melting temperature (HeLa Kyoto [1]; cell cycle stage: mitosis) [°C] | thermal stability score (HeLa Kyoto [2]; [5]) | thermal stability score (HeLa Kyoto [2]; cell cycle stage: mitosis) | solubility change mitosis (log2) (HeLa Kyoto [3]) | solubility in G1/S (log2) (HeLa Kyoto [4])
BAG3 | 53.6 | 53.1 | 1.43 | 5.24 | 1.06 | 0.185
BAZ1A | 45.9 | 49 | 1.48 | 3.95 | 0.356 | -0.551
BOD1L1 | 56 | 56 | -3.05 | -3.12 | 0.0131 | -0.161
C5ORF22 | 50.7 | – | -0.108 | 1.41 | -0.166 | 0.303
CAMSAP1 | 50.4 | 50.2 | -0.2 | 0.324 | 0.0139 | -0.149
CASKIN2 | 49.4 | 48.8 | 0.8 | 1.68 | -0.0911 | 0.412
CCDC88A | 49 | 49 | -0.404 | 1.05 | -0.1 | 0.124
CDK13 | 50.9 | 52.5 | -0.541 | 0.202 | 0.194 | -0.604
CHD4 | 46.9 | 49.1 | 3.38 | 8.56 | 0.0937 | -0.471
CIAO1 | 52.5 | 52.9 | -0.588 | -2.26 | -0.176 | -0.222
CKAP5 | 49.6 | 49.2 | -0.177 | -0.509 | -0.078 | 0.0443
CLPX | 50.6 | 50.2 | 2.55 | 0.77 | -0.0641 | 0.103
